# Reference: article PMC11257983 (2024)
# B1: Myc-MEK [Drosophila] / V5-KSR [Drosophila] (parent complex)
# chain 1: MSKNKLNLVLPPVNTEATVAAATVAPTPPFKTPSGTDTHSLLGKPKTSIDALTETLEGLDMGDTERKRIKMFLSQKEKIGELSDEDLEKLGELGSGNGGVVMKVRHTHTHLIMARKLIHLEVKPAIKKQILRELKVLHECNFPHIVGFYGAFYSDGEISICMEYMDGGSLDLILKRAGRIPESILGRITLAVLKGLSYLRDNHAIIHRDVKPSNILVNSSGEIKICDFGVSGQLIDSMANSFVGTRSYMSPERLQGTHYSVQSDIWSLGLSLVEMAIGMYPIPPPNTATLESIFADNAEESGQPTDEPRAMAIFELLDYIVNEPPPKLEHKIFSTEFKDFVDICLKKQPDERADLKTLLSHPWIRKAELEEVDISGWVCKTMDLPPSTPKRNTSPN
# chain 2: MSSNNNAPASAPDTGSTNANDPISGSLSVDSNLVIIQDMIDLSANHLEGLRTQCAISSTLTQQEIRCLESKLVRYFSELLLAKMRLNERIPANGLVPHTTGNELRQWLRVVGLSQGTLTACLARLTTLEQSLRLSDEEIRQLLADSPSQREEEELRRLTRAMQNLRKCMESLESGTAASNNDPEQWHWDSWDRPTHIHRGSVGNIGLGNNSTASPRTHHRQHGVKGKNSALANSTNFKSGRQSPSATEELNSTQGSQLTLTLTPSPPNSPFTPSSGLSSSLNGTPQRSRGTPPPARKHQTLLSQSHVQVDGEQLARNRLPTDPSPDSHSSTSSDIFVDPNTNASSGGSSSNVLMVPCSPGVGHVGMGHAIKHRFTKALGFMATCTLCQKQVFHRWMKCTDCKYICHKSCAPHVPPSCGLPREYVDEFRHIKEQGGYASLPHVHGAAKGSPLVKKSTLGKPLHQQHGDSSSPSSSCTSSTPSSPALFQQRERELDQAGSSSSANLLPTPSLGKHQPSQFNFPNVTVTSSGGSGGVSLISNEPVPEQFPTAPATANGGLDSLVSSSNGHMSSLIGSQTSNASTAATLTGSLVNSTTTTSTCSFFPRKLSTAGVDKRTPFTSEYTDTHKSNDSDKTVSLSGSASTDSDRTPVRVDSTEDGDSGQWRQNSISLKEWDIPYGDLLLLERIGQGRFGTVHRALWHGDVAVKLLNEDYLQDEHMLETFRSEVANFKNTRHENLVLFMGACMNPPYLAIVTSLCKGNTLYTYIHQRREKFAMNRTLLIAQQIAQGMGYLHAREIIHKDLRTKNIFIENGKVIITDFGLFSSTKLLYCDMGLGVPHNWLCYLAPELIRALQPEKPRGECLEFTPYSDVYSFGTVWYELICGEFTFKDQPAESIIWQVGRGMKQSLANLQSGRDVKDLLMLCWTYEKEHRPQFARLLSLLEHLPKKRLARSPSHPVNLSRSAESVF
# B2: Flag-CNK^2–549 [Drosophila] / GST-HYP [Drosophila] (parent complex)
# chain 1: AYINIAEWTPDQVTDWIKGLDESMKGYLYEFSKQEIGGRALLNIRPYELENLGMLRIGHQEIVLEAVENLRNFHYHLKNDNLQFMALHVATAAKNLHRELARNHAESTKIDTRILHDITRTIATLKPLVGSLERTPFRKQEMYREYCGNVLKCGLELATIAHRDRFALQPVPAIRQSAERLENLANFVIQDISDPMVLQPASLNLVTLKKRESELGFNIESSYNGIHRVTDIKYNSPAHNSGKIEDGDEIVQINYQTVVGWQHRTVLEHLREALPDVVLTVKKRPKHTKMFGQIYMQPYRLPSKKRNMAARWAAQMPSPRAAFLTLDTEQLATGGTGSAVPDPSKSLSSEKREVLTKANPVSSASDSDSSCSDIPTPTDPKLAAREIRLYYPKPRALLQRRNTICGCEYLSLKNSDLVVPSWHERKPGIGSPTNCDPGSPSIRDKSISFGYGLEMAARPTTCIGIAGDTSTDKARRMFHEARKLKQLTEDSQREFLVDRYKPGVSKVVRFDAKEDYVMKNEKFICNVENTILETFEPIPFADEGDEDA
# chain 2: MGEETINSTQNKTRTKTTRPKAVYLWTVSDVLKWYRRHCGEYTQYEQLFAQHDITGRALLRITDSSLQRMGVTDNRDREAIWREIVKQRLKTDIMEIRDMERLNIY
# Variants of: B1
# Experiment: anti-V5 immunoprecipitation, immunoblot quantification; S2 cells; V5-KSR and Myc-MEK co-expressed; anti-MEK blot; parent: 1
row,ratio to parent,Variant
1,1.51,chain 2 E926R
2,0.15,chain 2 W896R
3,0.46,chain 2 K903D
4,1.24,chain 2 Y925D
5,0.9,chain 2 M902D

# Variants of: B1
# Experiment: anti-V5 immunoprecipitation, immunoblot quantification; S2 cells; V5-KSR and Myc-MEK co-expressed; anti-Myc (MEK) blot; parent: 1
row,ratio to parent,Variant
1,1.31,chain 2 R913E

# Variants of: B1
# Experiment: as above
# Remark: another data set of the same source
row,ratio to parent,Variant
1,0.82,chain 1 E323R

# Variants of: B2
# Experiment: GST pull-down, immunoblot quantification; S2 cells; GST-HYP, V5-KSR, Myc-MEK co-expressed; anti-Flag (CNK) blot; parent: 1
row,Variant,ratio to parent
1,chain 1 L267R,0.85
2,chain 1 H263A,0.95
3,chain 1 K109E,0.81
4,chain 1 M196E,0.65
5,chain 1 K33D,0.84
6,chain 1 A40F,0.79

# Next, values leading:
row,ratio to parent,Variant
1,0.84,chain 1 T135F
2,0.68,chain 1 R264E

# Variants of: B2
# Experiment: GST pull-down, immunoblot quantification; S2 cells; GST-HYP + RRKM co-expressed; anti-Flag (CNK) blot; parent: 1
row,ratio to parent,Variant
1,0.94,chain 1 F73R
2,0.61,"chain 1 F73R, chain 1 V251R"
3,0.87,chain 1 A66F
4,0.68,chain 1 V251R
5,0.84,chain 1 E249R

# Variants of: B2
# Experiment: GST pull-down, immunoblot quantification; S2 cells; only Flag-CNK2–549 and GST-HYP co-expressed; anti-Flag blot; parent: 1
row,ratio to parent,Variant
1,0.91,chain 1 F73R
2,0.04,"chain 1 F73R, chain 1 V251R"
3,0.29,chain 1 A66F
4,0.07,chain 1 V251R
5,0.75,chain 1 E249R

# Variants of: B2
# Experiment: GST pull-down, immunoblot quantification; S2 cells; GST-HYP, V5-KSR, Myc-MEK co-expressed; anti-Flag (CNK) blot; parent: 1
# Remark: another data set of the same source
row,Variant,ratio to parent
1,chain 1 D194K,0.24
2,chain 1 Q199A,0.87
3,"chain 1 D194K, chain 1 V197E",0.27
4,chain 1 M196E,0.55

# Now from value to variant:
row,ratio to parent,Variant
1,0.94,chain 1 S193A
2,0.24,chain 1 V197E

# Variants of: B2
# Experiment: GST pull-down, immunoblot quantification; S2 cells; only Flag-CNK2–549 and GST-HYP co-expressed; anti-Flag (CNK) blot; parent: 1
row,Variant,ratio to parent
1,chain 1 D194K,0.76
2,chain 1 Q199A,0.83
3,"chain 1 D194K, chain 1 V197E",1.03
4,chain 1 M196E,0.82

# Now from value to variant:
row,ratio to parent,Variant
1,0.81,chain 1 S193A
2,0.77,chain 1 V197E

# Variants of: B2
# Experiment: GST pull-down, immunoblot quantification; S2 cells; GST-HYP + RRKM (Ha-RASV12, Pyo-RAF, V5-KSR, Myc-MEK) co-expressed; anti-Flag (CNK) blot; parent: 1
row,Variant,ratio to parent
1,chain 1 D194K,0.24
2,chain 1 Q199A,0.72
3,chain 1 M196E,0.34

# Other lines, results leading:
row,ratio to parent,Variant
1,0.86,chain 1 S193A
2,0.21,chain 1 V197E

# Variants of: B2
# Experiment: GST pull-down, immunoblot quantification; S2 cells; only Flag-CNK2–549 and GST-HYP co-expressed; anti-Flag (CNK) blot; parent: 1
# Remark: another data set of the same source
row,Variant,ratio to parent
1,chain 1 N95E,0.99
2,chain 1 N81E,0.9
3,chain 1 N81W,0.7
4,chain 1 Q83E,1.12

# The remaining lines, values ahead:
row,ratio to parent,Variant
1,0.73,chain 1 R45F
2,0.93,chain 1 Y75R
3,1.27,chain 1 R98E

# Variants of: B2
# Experiment: GST pull-down, immunoblot quantification; S2 cells; Flag-CNK2–549, V5-KSR, Myc-MEK, GST-HYP co-expressed; anti-CNK blot; parent: 1
row,Variant,ratio to parent
1,chain 1 N95E,0.82
2,chain 1 N81E,0.24
3,chain 1 N81W,0.09
4,chain 1 Q83E,0.4

# The next lines start with the values.
row,ratio to parent,Variant
1,0.79,chain 1 R45F
2,0.73,chain 1 Y75R
3,0.77,chain 1 R98E

# Variants of: B2
# Experiment: GST pull-down, immunoblot quantification; S2 cells; only GST-HYP and Flag-CNK2–549 co-expressed; anti-Flag blot; parent: 1
row,ratio to parent,Variant
1,0.12,"chain 1 I122D, chain 1 L151D"
2,0.17,chain 1 I122D
3,0.76,chain 1 L151D

# Variants of: B2
# Experiment: GST pull-down, immunoblot quantification; S2 cells; GST-HYP, Flag-CNK2–549 + RRKM co-expressed; anti-Flag (CNK) blot; parent: 1
row,ratio to parent,Variant
1,0.1,"chain 1 I122D, chain 1 L151D"
2,0.63,chain 1 I122D
3,0.33,chain 1 L151D

# Variants of: B2
# Experiment: GST pull-down, immunoblot quantification; S2 cells; only GST-HYP and Flag-CNK2–549 co-expressed; anti-Flag blot; parent: 1
# Remark: another data set of the same source
row,ratio to parent,Variant
1,0.24,chain 2 L90D
2,0.25,"chain 2 L90D, chain 2 I97D"
3,0.28,chain 2 I97D

# Variants of: B2
# Experiment: GST pull-down, immunoblot quantification; S2 cells; GST-HYP, Flag-CNK2–549 + RRKM co-expressed; anti-Flag (CNK) blot; parent: 1
# Remark: another data set of the same source
row,ratio to parent,Variant
1,0.24,chain 2 L90D
2,0.15,"chain 2 L90D, chain 2 I97D"
3,0.53,chain 2 I97D
